Assay results: the supplement of paper PMC12783771
± gives the standard deviation of the averaged measurements.

B1: library; a variant is named by its letters at X, in order (parent)
chain: MNIQIGELAKRTACPVVTIRFYEQEGLLPPPGRSRGNFRLYGEEHVERLQFIRHCRSLDMPLSDVRTLLSYRKRPDQDCGEVXMLLDEHIRQVESRIGALLELKHHLVELREACSGARPAQSCGILQXLSXCVCXTRGTTAHXSD

Columns and labels:
[1] = variants of: B1; assay: sfGFP reporter fluorescence (15 h) (µM FITC); higher = higher leak; details: library round: Round 2; ligand: none
Procedure: (§1)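 Cell-free biosensing: 1 µL Echo-assembled CFE reactions with linear PbrR variant templates (5 nM) and pPbrR-sfGFP reporter, with 1 µM Pb, 30 µM Zn or no ligand; endpoint sfGFP fluorescence after 15 h at 30 °C calibrated as µM FITC. Round 2 ML-predicted PbrR mutants; up to 3 biological replicates.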

[2] = variants of: B1; assay: sfGFP reporter fluorescence (15 h) (µM FITC); higher = stronger transcriptional activation; details: library round: Round 2
Procedure: as §1

| Variant | sfGFP reporter fluorescence [1] | sfGFP reporter fluorescence ([2]; ligand: 1 µM Pb) | sfGFP reporter fluorescence ([2]; ligand: 30 µM Zn) |
| --- | --- | --- | --- |
| TGDDP R96A K104V L107I | 0.0526 ± 0.0017 | 0.0483 ± 0.0032 | 0.0559 ± 0.002 |
| NGADP V133P C134V | 0.0817 ± 0.0086 | 0.0967 ± 0.019 | 2.1 ± 0.36 |
| NADDP P61N D64K K104V | 0.917 ± 0.079 | 1.61 ± 0.16 | 3.1 ± 0.27 |
| TGSDP V108L | 0.0452 ± 0.0017 | 0.0823 ± 0.0056 | 0.229 ± 0.022 |
| NGDAR E112I | 0.0495 ± 0.0017 | 0.054 ± 0.002 | 0.35 ± 0.016 |
| TGCAT | 0.0488 ± 0.002 | 0.0664 ± 0.0029 | 0.09 ± 0.0056 |
| TGCAP | 0.0461 ± 0.0022 | 0.0657 ± 0.0026 | 0.0869 ± 0.005 |
| TGAYC | 0.05432 ± 0.00051 | 0.085 ± 0.0051 | 0.699 ± 0.064 |
| NHCDA | 0.0569 ± 0.0056 | 0.0749 ± 0.0034 | 0.446 ± 0.063 |
| NGAKP L107V | 0.173 ± 0.011 | 0.513 ± 0.055 | 3.38 ± 0.24 |
| TGSPP | 0.0436 ± 0.0022 | 0.125 ± 0.0052 | 0.305 ± 0.0072 |
| NHDDW E109L | 0.0479 ± 0.00051 | 0.0832 ± 0.0024 | 0.399 ± 0.045 |
| TGDAP E109L | 0.043 ± 0.0023 | 0.0797 ± 0.0069 | 0.366 ± 0.035 |
| NGDAP P61N D64T E112I | 0.11 ± 0.014 | 0.308 ± 0.03 | 1.7 ± 0.2 |
| TGDDP D64E V108N | 0.0416 ± 0.00051 | 0.0357 ± 0.0033 | 0.0616 ± 0.0048 |
| TGDDP V108L E112F | 0.0469 ± 0.0011 | 0.0496 ± 0.0032 | 0.0846 ± 0.0051 |
| NGCAY | 0.0505 ± 0.0017 | 0.0635 ± 0.0058 | 0.277 ± 0.0034 |
| NGCAL | 0.0515 ± 0.0016 | 0.0668 ± 0.0024 | 0.255 ± 0.022 |
| SGDAA | 0.0628 ± 0.0043 | 0.0745 ± 0.0027 | 0.449 ± 0.062 |
| SGDAY | 0.0491 ± 0.0015 | 0.0749 ± 0.0032 | 0.399 ± 0.039 |
| NGDDP P61N L107C E109H | 0.627 ± 0.1 | 1.51 ± 0.22 | 2.62 ± 0.31 |
| TGNRA | 0.0608 ± 0.0044 | 0.107 ± 0.018 | 0.663 ± 0.059 |

| Variant | sfGFP reporter fluorescence [1] | sfGFP reporter fluorescence ([2]; ligand: 1 µM Pb) | sfGFP reporter fluorescence ([2]; ligand: 30 µM Zn) |
| --- | --- | --- | --- |
| NGDDP D64K K104V R111A | 0.0829 ± 0.0096 | 0.354 ± 0.017 | 2.2 ± 0.44 |
| NGDDP P61N D64K K104M L107C | 0.791 ± 0.061 | 1.74 ± 0.2 | 2.52 ± 0.35 |
| TGDRP V108L | 0.0448 ± 0.0017 | 0.0788 ± 0.0022 | 0.327 ± 0.012 |
| TGDRP L107C | 0.176 ± 0.016 | 1.17 ± 0.063 | 2.94 ± 0.2 |
| THDDW | 0.0458 ± 0.0021 | 0.0682 ± 0.011 | 0.0889 ± 0.0029 |
| NHCDL E109L | 0.0622 ± 0.0037 | 0.0798 ± 0.0072 | 0.512 ± 0.062 |
| NGDDR T136A T140A | 0.0505 ± 0.0017 | 0.0665 ± 0.0039 | 0.801 ± 0.079 |
| NGDAM Q121A | 0.0666 ± 0.0079 | 0.106 ± 0.0059 | 1.36 ± 0.13 |
| NGDDP D64K V108E R111L | 0.0746 ± 0.0031 | 0.165 ± 0.012 | 1.8 ± 0.29 |
| NGCDP I125V L129M | 0.0493 ± 0.0017 | 0.0435 ± 0.0022 | 0.0493 ± 0.003 |
| NGDAL L110I | 0.0605 ± 0.0082 | 0.0575 ± 0.0038 | 0.953 ± 0.064 |
| NGDAP E109D G124A | 0.0638 ± 0.0036 | 0.0745 ± 0.0045 | 0.474 ± 0.07 |
| NGADP M60L D64K | 1.59 ± 0.28 | 2.6 ± 0.28 | 3.98 ± 0.16 |
| TGDRW | 0.0495 ± 0.00078 | 0.0726 ± 0.0038 | 0.205 ± 0.014 |
| NGCDR K104R | 0.047 ± 0.0037 | 0.0672 ± 0.0019 | 0.0986 ± 0.0051 |
| NGAPL | 0.0797 ± 0.0073 | 0.16 ± 0.0081 | 1.22 ± 0.26 |
| NGAPY | 0.0801 ± 0.0048 | 0.159 ± 0.0087 | 1.13 ± 0.12 |
| TGAPL | 0.0604 ± 0.0053 | 0.109 ± 0.013 | 0.301 ± 0.034 |
| TGAPW | 0.0521 ± 0.00089 | 0.146 ± 0.014 | 0.264 ± 0.014 |
| NGSRP L126I | 0.0416 ± 0.0022 | 0.0457 ± 0.0021 | 0.333 ± 0.0046 |
| NGDAP M60L D64K | 1.45 ± 1.3 | 1.27 ± 0.82 | 3.35 ± 0.63 |
| NGAAF E112D | 0.0594 ± 0.0017 | 0.0886 ± 0.0049 | 0.82 ± 0.062 |
